Source: the nanobody polyreactivity screen of Harvey et al. (2022)

Assay: yeast display, Sf9 membrane polyspecificity reagent, FACS + sequencing; frameworks hold sequencing errors
Method in brief: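 Sorting gates, low and high (top ~1%), were placed on anti-HA fluorescence to track expression and on streptavidin fluorescence to track reagent binding. A clone's polyreactivity label is taken from the gate it came out of. The reagent was 10% biotinylated, detergent-solubilized Sf9 membrane, applied for 1 hour at 4 °C to galactose-induced yeast display cells.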

Row | Sequence | polyreactivity (PSR sort gate)
1 | QVQLVESGGGLVQAGGSLRLSCPASGSTLWGYAMGWYRQAPGKERELVAAITSSGGITYYADSVKGRFTISRDNAKNTVYLQMNSLKPEDTAVYYCAVDYYVVGWTYLYYYRGQGTQVTVSS | low polyreactivity
2 | QVQLVESGGGLVQAGGSLRLSCPASVSIFYTYAMGLYRQAPGKEREFFASNTYRGSNTYYADSVKGRFTISRDNAKNTVYLQMNSLKPEDTAVYYCAAERYLYYPPYIYETSYVYWGQGSQVTVSS | low polyreactivity
3 | QVQLVESGGGLVQAGGSLRLSCPPSGYTISHYAMGWYRQAPGKERELVAGITWSGGSTYYADSVKGRFTISRDNAKNTVYLQMNSLKPEDTSVYFCAAKYYWYYSYSGIPLFDYWGQGTQVTVSS | low polyreactivity
4 | QVQLVESGGGLVQAGGSLRLSCSACGFIFPSYVMGWYRQAPGKERELVATISRSGGSTYYADSVKGRFTISRDNAKNTVYLQMNSLKPEDTAVYYCATRRRCRYSPYSPYDYWGQGTQVTVTS | high polyreactivity
5 | QVQLVESGGGLVQAGGSLRLSCSASERTFYWNTMGWYRQAPGKERELVAAIRTSGGSTYYADSVKGRFTISRDNAKNTVYLQMNSLKPEDTAVYYCAAKYRNYNTRYDYWGQGTQVTVSS | high polyreactivity
6 | QVQLVESGGGLVQAGGSLRLSCSASGFIFGKYAMGRYRQAPGKERELVAAISKSGGSTYYADSVKGRFTISRDNAKNTVYLQMNSLKPEDTAVYYCDARSLGHYGSWGQGTQVTVSS | high polyreactivity
7 | QVQLVESGGGLVQAGGSLRLSCSASGFIFRRYAMGWYRQAPGKEREFVAAITSSGTSTYYADSVKGRFTISRDNAKNTVYLQMNSLKPEDTAVYYCADVYQYTHYYSNYGYWGEGTQVTVSS | high polyreactivity
8 | QVQLVESGGGLVQAGGSLRLSCSASGFIFTTYAMAWYRQAPGKERELVAAIRNSDGSTYYADSVKGRFTISRDNAKNTVYLQMNSLKPVDTAVYYCAKRYRGEPGRTYGYWGQGTQVTVSS | high polyreactivity
9 | QVQLVESGGGLVQAGGSLRLSCSASGFIFTYVMGWYRQAPGKERELVAVITNGGSTYYADSVKGRFTISRDNAMNTVYLQMNSLKPEDTAVYYCAARARFRYDSYYYWGQGTQVTVSS | high polyreactivity
10 | QVQLVESGGGLVQAGGSLRLSCSASGFTFKRYAKGLYRQAHGKERELVASISSSGGRTYYADSVKGRFTISRDNAKNTVYLQMNSLKPEDTAVYYCSASDWWGYYFWGQGTQVTVSS | high polyreactivity
11 | QVQLVESGGGLVQAGGSLRLSCSASGGTFSYYAMGWYRQAPGKERELVASISTDGGSTYYADSVKGRFTISRDNAKNTVYLQMNSLKPEDTAVYYCNARPRGYSDRYGYWGQGTQVTVSS | high polyreactivity
12 | QVQLVESGGGLVQAGGSLRLSCSASGIIFGFYAMGWYRQAPGKERELVAAITNDGGNTNYADSVKGRFTISRDNAKNTVYLQMNSLKPEDTAVYYCNADRTQDRNPYTYATFDYWGQGTQVTVSS | low polyreactivity
13 | QVQLVESGGGLVQAGGSLRLSCSASGIIFPTYAMGLYRQAPGKERELVAAIRWTGGSTYYADSVKGRFTISRDNAKNTVYLQMNSLKPEDTAVYYCAAAYRGRYKYYYWGQGTQVTVSS | high polyreactivity
14 | QVQLVESGGGLVQAGGSLRLSCSASGITFFTYAMGWYRQAPGKERELVAAISGSGGSTYYADSVKGRFTISRDNAKNTVYLQMNSLKPEDTADYYCAAEYTYASPYDYWGQGTQVTVSS | low polyreactivity
15 | QVQLVESGGGLVQAGGSLRLSCSASGITFPDYAMGWYRQAPVKERELVATISSSGGNTYYADSVKGRFTISRDNAKNTVYLQMNSLKPEDTAVYYCATVSYYWGYDYWGQGTQVTVSS | low polyreactivity
16 | QVQLVESGGGLVQAGGSLRLSCSASGITFWKYAMGWYRQAPGKERELVASISGRGGSTYYADSVKGRFTISRYKANNTVYLQMNSLKPEDTAVYYCAKYPGISGYNYWGQGTQVTVSS | high polyreactivity
17 | QVQLVESGGGLVQAGGSLRLSCSASGITYGGNEMGWYRQAPGTESELVAGIDDGGSTNYADSVKGRFTISRDNAKNTVYLQMNSLKPEDTAVYYCAVQGHPPLGILPGFLFDYWGQGTQVTVSS | low polyreactivity
18 | QVQLVESGGGLVQAGGSLRLSCSASGLTFYSNAMGWYRQAPGKERELVASISKRGATTYYADSVKGRFTISRDNAKNTVYLQMNSLKPEDTAVYYCAADLRITSYNSWGQGTQVTVSS | low polyreactivity
19 | QVQLVESGGGLVQAGGSLRLSCSASGNIFKRYTMGWYRQAPGKERELVAAISGGDSTNYADSVKGRFTISRDNAKKTVYLQMNCLKPEDTAVYYCAGGGLTLWHGYILGYWGQGTQVTVSS | low polyreactivity
20 | QVQLVESGGGLVQAGGSLRLSCSASGRIFGAYAMGWYRQAPGKERELVAAITSAGSAHYADYVKGRFTISRDNAKNTVYLQMNSLKPEDTAVYYCAADGIARAYVLFYAYDFLYDYWGQGTQVTVSS | low polyreactivity
21 | QVQLVESGGGLVQAGGSLRLSCSASGRIFGYNAMGWSRQAPGKERELVAAISYSGTSTYYADSVKGRFTISRDKAKNTVYLQMNSLKPEDTAVYYCATLAYRWSVAYEYLGQGTQVTVSS | low polyreactivity
22 | QVQLVESGGGLVQAGGSLRLSCSASGRIFSVYAMGWYRQAPGKERELVAAITWRGGSTYYADSVKGRFTISRDNAKNTVYLQMNSLKPEDTAVYYCAAVESGYGSKRFYYWGQGTQVTVSS | high polyreactivity

Row | Sequence | polyreactivity (PSR sort gate)
23 | QVQLVESGGGLVQAGGSLRLSCSASGRIFYPYAMGWYRQAPGKERELVAAITRRTASTYYADSVKGRFTISRDNAKNTVYLQMNSLKPEDTAVYFCAADSYLKRPYYAGYYYWGQGTQVTVSS | high polyreactivity
24 | QVQLVESGGGLVQAGGSLRLSCSASGRTFIVYAMGWYRQAPGKERELVAAITTSVGRTYYADSVKGRFTISRDNAKNTVYLQMNSLKPEDTAVYYCAADRLDGYSEYYYWGQGTQVTVSS | low polyreactivity
25 | QVQLVESGGGLVQAGGSLRLSCSASGSIFDAYAMGWYRQAPGKERELVAAITTGGGSTYYADSVKGRFTISRDNAKNTVYLQMNSLKPEDTAVYYCAAEGFATDGWWYYKAYDDWGQGTQVTVSS | low polyreactivity
26 | QVQLVESGGGLVQAGGSLRLSCSASGSIFDRYTIGWYRQAPWKERDLVAAITFGGGSTYYADSVKVRFTISRDNAKNTDYLQRNSLKPADTAVYYCAKQRHGKLGHILGYNYWGQGTQVTVSS | low polyreactivity
27 | QVQLVESGGGLVQAGGSLRLSCSASGSIFYVYAMGWYRPAPGKERELVAAITSSGTTNYADSVKGRFTISRDNAKNTVYLQMNSLKPEDTAVYYCAADPDSGQVPFDYWVQGTQVTVSS | low polyreactivity
28 | QVQLVESGGGLVQAGGSLRLSCSASGSIFYWYDMGWYRLAPGKERELVAAISSGGSTNYADSVKGRFTISRDNAKNTVYLQMISLKPEDTAVYYCNADVPLRYGPIYFRRLDYWGQGTQVTVSS | low polyreactivity
29 | QVQLVESGGGLVQAGGSLRLSCSASGSISGYYAMGWYRQAPGKERELVASIRYTGARTYYADSVKGRFTISRDNAKNTVYLQMNSLKPEDTAVYYCAAERSWYTWFASDYDYWGQGTQVTVSS | low polyreactivity
30 | QVQLVESGGGLVQAGGSLRLSCSASGSTFYGYAMGWYRQAPGKEWELVAAINWSGGSTYYADSVKGRFTISRDNAKNTVYLQMNSLKPEDTAVYYCNKAWLGSVSRRYYYWGQGTQVTVSS | high polyreactivity
31 | QVQLVESGGGLVQAGGSLRLSCSASGSTFYRKTMGWYRQAPGKERELVAAISSGGGTKYADSVKGRFTISRDNAKNTVYLQMNSLKPEDTAVYYCAAVYYTLGYAYYPYIYYYWGQGTQVTVSS | high polyreactivity
32 | QVQLVESGGGLVQAGGSLRLSCSASGSTITTYAMGWYRQAPGKERELVAAISTNGGRTCYADSVKGRFTISRDYAKNTVSLQMNSLKPEDTAVYYCAAEYGLYAPGYYYWGQGTQVTVSS | low polyreactivity
33 | QVQLVESGGGLVQAGGSLRLSCSASGSTSGKYAMGWYRQAPGKESELVAGITKGGGGTYYADSVKGRFTISRDNAKNTVYLQMNSLKPEDTAVYYCAKYYGSGYYIYDYWGQGTQVTVSS | low polyreactivity
34 | QVQLVESGGGLVQAGGSLRLSCSASGSTSYYYAMGWYRQAPGKERELVATISTTGAGTYYADSVKGRFTISRDNAKTTVYLQMNILKPEDTAVFYCAKDGKASRDDAEYYYWGQGTQVTVSS | low polyreactivity
35 | QVQLVESGGGLVQAGGSLRLSCSASGSTYYNAMGWYRQAPGKERQLVAAIRFRSGSTYYADSVKGRFTISRDNAKNTVYLQMNSLKPEDTAVYYCAADNKRSWRYAYTYWGQGTQVTVSS | high polyreactivity
36 | QVQLVESGGGLVQAGGSLRLSCSASGTILYFYAMGWYRQAQGKERELVAAIDSGGSTDYADSVKGRFTISRYNAKNTVYLQMNSLKPEDTAVYYCAAYPWERYTWWYVYRGHVYWGQGTQVTVSS | low polyreactivity
37 | QVQLVESGGGLVQAGGSLRLSCSASGTTFRYNAMGRYRQAPGKERQLVAAITSGGTTNYADSVKGRFTISRDNAKNTVYLQMNSLKPEDTAVYYCAKKRPGFLRYGSIGEFQYDYWGQGTQVTVSS | low polyreactivity
38 | QVQLVESGGGLVQAGGSLRLSCSASGYIFDYNAMGWYIQAPGKERELVAAITFRDGSTYADSVKGRFTISRDNAKNTVYLQMNSLKPEDTAVYYCNRRSQVHSHSKHDYWGQGTQVTVSS | low polyreactivity
39 | QVQLVESGGGLVQAGGSLRLSCSASGYIFSSNTMGWYRQAPGTERELVAGISGRTGRTYYADSVKGRFTISRDNAKNTVYLQMNSLKPEDTAVYYCARVPYQGYPRRRLSGYYYWGQGTQVTVSS | high polyreactivity
40 | QVQLVESGGGLVQAGGSLRLSCTASGIIFGTYAMGWYRQAPGKERELVAAISSSGVSTYYADSVKGRFTISRDNAKNTVYLQMNSLKPEDTAVYYCAAPLHYGYYYWGQGTQVTVSS | high polyreactivity
41 | QVQLVESGGGLVQAGGSLRLSCTASGNTFALYAMGWYRQAPGKERELVARISRRGGSTYYADSVKGRFTISRDNAKNTVYLQMNSLKPEDTAVYYCAKTHSYYPWEVNYWGQGTQVTVSS | high polyreactivity
42 | QVQLVESGGGLVQAGGSLRLSCTASGRTLYNYTMGWYRQAPGKERELVAAISRGGGSTYYADSVKGRFTISRDNAKNTVYLQMNSLKQEDTAVYYCATDQTYPYCGGGDYWGQGTQVTVSS | low polyreactivity
43 | QVQLVESGGGLVQAGGSLRLSFAASGFTFSAYAMGWYRQAPGKERELVASISGSAGSTYYADTVKGRFTISRYNAKNTVYLHMNSLKPEDTAVYYCNARRRQWQARYDYWGQGTQITVSS | high polyreactivity
